Results on two substances are retold here after paper PMC2518520.

Test [1] deals with heterotrimeric Gq (Gαqβ1γ2) (UniProt P21279). Briefly: global least-squares fit of a kinetic model to steady-state GTPase rates; GTP-bound Gq species; purified proteins in unilamellar phospholipid vesicles; constants calculated from fitted rate constants (log average of 41 fits); protein concentrations counted on the bilayer volume, so association constants are about 13,000-fold higher than on the aqueous volume.

Test [2] concerns the target complex of agonist-bound m1 muscarinic cholinergic receptor with heterotrimeric Gq (Gαqβ1γ2) (UniProt P11229). As to the kind of experiment: global least-squares fit of a kinetic model to steady-state GTPase rates; GDP-bound Gq species; purified proteins in unilamellar phospholipid vesicles; constants calculated from fitted rate constants (log average of 41 fits); protein concentrations counted on the bilayer volume, so association constants are about 13,000-fold higher than on the aqueous volume.

In test [3] the target is heterotrimeric Gq (Gαqβ1γ2) (UniProt P21279). The test is described as above.
Test [4] deals with complex of agonist-bound m1 muscarinic cholinergic receptor with heterotrimeric Gq (Gαqβ1γ2) (UniProt P11229). As to the kind of experiment: global least-squares fit of a kinetic model to steady-state GTPase rates; GTP-bound Gq species; purified proteins in unilamellar phospholipid vesicles; constants calculated from fitted rate constants (log average of 41 fits); protein concentrations counted on the bilayer volume, so association constants are about 13,000-fold higher than on the aqueous volume.

Test [5] shares this target. As to the kind of experiment: global least-squares fit of a kinetic model to steady-state GTPase rates; nucleotide-free Gq species; purified proteins in unilamellar phospholipid vesicles; constants calculated from fitted rate constants (log average of 41 fits); protein concentrations counted on the bilayer volume, so association constants are about 13,000-fold higher than on the aqueous volume.

For test [6], the target named is heterotrimeric Gq (Gαqβ1γ2) (UniProt P21279). The description is as above.

Sequence of m1 muscarinic cholinergic receptor (P11229 whole entry): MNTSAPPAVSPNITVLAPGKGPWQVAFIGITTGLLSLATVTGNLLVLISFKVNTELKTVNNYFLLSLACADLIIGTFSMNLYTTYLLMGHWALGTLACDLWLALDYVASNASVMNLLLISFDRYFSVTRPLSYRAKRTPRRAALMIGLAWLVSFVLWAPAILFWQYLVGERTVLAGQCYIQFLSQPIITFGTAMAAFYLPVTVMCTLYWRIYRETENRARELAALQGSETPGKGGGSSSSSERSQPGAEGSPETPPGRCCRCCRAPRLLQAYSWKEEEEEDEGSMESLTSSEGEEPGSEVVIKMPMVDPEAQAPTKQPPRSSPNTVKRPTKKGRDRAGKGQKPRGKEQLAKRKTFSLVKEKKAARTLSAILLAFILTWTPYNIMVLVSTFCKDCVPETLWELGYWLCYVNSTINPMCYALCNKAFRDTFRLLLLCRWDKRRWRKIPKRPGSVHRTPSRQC

“m1 muscarinic cholinergic receptor (from UniProt P11229 1-460)”: the fold faster dissociation with GTP bound in test [1] was 70 fold.

“phospholipase C-β1 (from UniProt P10687 1-1216) (enzyme)”: the Ka in test [2] was 2300 M⁻¹; in test [3], 280000 M⁻¹; in test [4], 390000 M⁻¹; in test [1] it was 9.6e+06 M⁻¹; in test [5], 560000 M⁻¹; in test [6] it was 370000 M⁻¹. The fold faster dissociation than from Gq-GDP without receptor in test [2] is 90 fold. For the same substance, the t1/2 of dissociation in test [2] was 0.3 s.
